The values below come from US20170306013A1 (KYMAB, published 2017).

T1: KP1.2 peptide of the D2E2 loop of the Nav1.7 channel (human, not fully specified)
T1 construct: also called human NAV1.7 peptide
T1 peptide: H-VELFLADVEGC-NH2

B1: 30G01 (antibody, V domains shown)
VH: QVQLQESGPGLVKPSGTLSLTCAVSGGSISSSNWWSWVRQPPGKGLEWIGEIYHSGNTNYNPSLKSRVTISVDKSKNQFSLKLSSVTAADTAVYYCVRGYYYDSGTSWGYYYGMDVWGQGTTVTVSS
VL: DIQMTQSPSSLSASVGDRVTITCRASQGISNYLAWFQQRPGRAPKSLIYAASSLQRGVPSKFSGSGSGTDFTLTISSLQPEDFATYYCQQYNSYPITFGQGTRLEIK
B2: 25C01 (antibody, V domains shown)
VH: EVHLVESGGGLVQPGGSLRLSCSASRFTFSTSAMTWVRQAPGKGLEWVSVISASGTTTYYGDSVKGRFTISRDNSKNTLHLQMNSLRAEDTAVYYCAKGGLAVPGPNYWGQGTLVTVSS
VL: DVVMTQSPLSLPVTLGQPASISCRSSQSLVFSDGNTYLTWFQQRPGQSPRRLIYKVSDRDSGVPDRFSGSGSGTDFTLQISRVEAEDVGLYYCMQGSHWPLTFGGGTKVEIK
notes: Detected with anti-human IgG
B3: 25A01 (antibody, V domains shown)
VH: QVQLVQSEAEVKKPGASVKVSCKASGYIFTTFGLSWVRQAPGQGLEWMGRITTNNGNTIYERRFQGRVTMTIDTSTTTAYMEMRSLTSDDTAVYYCARDGAPQDHWGQGTLVTVSS
VL: DIQMTQSPSSLSVSVGDRVIITCRASQDIRNSLAWFQQKPGKAPKSLIFAASSLQSGVPSKFRGSGFGTDFTLTITSLQPEDFATYYCQQYSSYPLTFGGGTKVEIK
notes: Detected with anti-human IgG
B4: 25F08 (antibody, V domains shown)
VH: QVQLVQSGPEVKKPGASVKVSCQASGYTFTTYGINWVRQAPGQGLEWMGRISAYNGNTNYAQKFQGRVTMTTDTSTRTAYMEMSNLISDDTAVYYCARDGAPQDHWGQGTLITVSS
VL: DIQMTQSPSSLSVSVGDRITITCRASQDISNSLAWFQQKPGKAPKSLIFAASSLQSGVPSKFSGSGSGTDFNFTISSLQPEDFATYYCQQYNSFPLTFGGGTKVEIK
notes: Detected with anti-human IgG
B5: 22G09 (antibody, V domains shown)
VH: QVQLVQSGAEVRKPGASVKVSCKASGYTFTDYAIHWVRQAPGQRLEWMGWIIVGNGKTRYSQKFQGRVTITWETSATTAYMDLSSLRSEDTAVYYCARGFTMVRGAPYYDGMDVWGQGTTVTVSS
VL: DIVMTQSPLSLPVTPGEPASISCRSSQSLLYTTGYNYLDWYLQKPGLSPQLLIYLGSYRASGVPDRFTGSGSGTDFTLKISRVEAEDVGVYYCMQALQAPTFGGGTKLEIK
notes: Detected with anti-human IgG
B6: 32A07 (antibody, V domains shown)
VH: QVQLVQSGPEVRNPGASVRVSCKASGYTFTDYALHWVRQAPGQRLEWMGWIIVGNGKTRYAQKFQGRVTITWETSASTAFMDLSSLRSEDTAVYYCARGFTMVRGAPYYDGLDVWGQGTTVTISS
VL: DIVMTQSPLSLPVTLGQPASISCRSSQSLIYSDGNTYLNWFQQRPGQSPRRLIYKVSNRDSGVPDRFSGSGSGTDFTLKISRVEAEDVGVYYCLQGTLWPITFGQGTRLEIK
B7: 28B08 (antibody, V domains shown)
VH: QVQLVQSGAEVRKPGASVKVSCKASGYTFTDYALHWVRQAPGQRLEWMGWIIVGNGKTRYAQKFQGRVTITWETSASTAFVDLNSLRSEDTAVYYCARGFTMVRGAPYYDGLDVWGQGTTVTVSS
VL: DIVMTQSPLSLSVTPGEPASISCRSSQSLLYSTGYNYLDWYLQKPGLSPQLLIYLGSNRASGVPDRFSGSGSGTDFTLKISRVEAEDVGFYYCMQALQAPTFGGGTKVEIK
notes: Detected with anti-human IgG; also called 28608
B8: 28C11 (antibody, V domains shown)
VH: QVQLVQSGAEVRKPGASVKVSCKASGYTFTDYAIHWVRQAPGQRLEWMGWIIVGNGKTRYAQKFQGRVTITWETSASTAYMDLSSLRSEDTAVYYCARGFTMVRGAPYYDGLDVWGQGTTVTVSS
VL: DIVMTQSPLSLPVTPGEPASISCRSSQSLLFSTGYNYLDWYLQKPGLSPQLLIYLGSNRASGVPDRFSGSGSGTDFTLKISRVEAEDVGVYYCMQALQTPTFGGGTKVEIK
notes: Detected with anti-human IgG
B9: 35E11 (antibody, V domains shown)
VH: QVQLVQSGAEVRKPGASVKVSCKASGYTFTDYAIHWVRQAPGQRLEWMGWIIVGNGKTRYAQKLQGRVTITWETSASTAYMDLTSLRSEDTAVYYCARGFTMVRGAPYYDGLDVWGQGTTVTVSS
VL: DIVMTQSPLSLPVTPGEPASISCRSSQSLLYSTGYNYLDWYLQKPGLSPHLLIYLGSNRASGVPDRFSGSGSGTDFTLKISRVEAEDVGVYYCMQALQTPTFGGGTKVEIK
B10: 32D04 (antibody, V domains shown)
VH: QVQLVQSGPEVRNPGASVRVSCKASGYTFTDYALHWVRQAPGQRLEWMGWIIVGNGKTRYAQKFQGRVTITWETSASTAFMDLSSLRSEDTAVYYCARGFTMVRGAPYYDGLDVWGQGTTVTISS
VL: DIVMTQSPLSLPVSPGEPASISCRSSQSLLYSTGYNYLDWYLQKPGLSPQLLIYLGSIRASGVPDRFSGSGSGTDFTLSISRVEAEDVGIYYCMQALQTPTFGGGTKVEIK
notes: Detected with anti-human IgG
B11: 32E01 (antibody, V domains shown)
VH: QVQLVQSGAEVRKPGASVKVSCKASGYTFTDYAIHWVRQAPGQRLEWMGWIIVGNGKTRYSQKFQGRVTITWETSASTAYMDLSSLRSEDTAVYYCARGFTMVRGAPYYDGMDVWGQGTTVTVSS
VL: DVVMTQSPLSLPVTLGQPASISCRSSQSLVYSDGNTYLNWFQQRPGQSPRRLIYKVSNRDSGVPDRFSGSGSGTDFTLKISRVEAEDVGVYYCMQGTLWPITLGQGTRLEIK
B12: 32B04 (antibody, V domains shown)
VH: QVQFVQSGAEVRKPGASVKVSCKASGYTFTDYAIHWVRQAPGQRLEWMGWIIVGNGKTRYSQKFQGRLTITWETSATTAYMDLSSLRSEDTAVYYCARGFTMVRGAPYYDGMDVWGQGTTVTVSS
VL: DIVMTQSPLSLPVTPGEPASISCRSSQSLLYTTGYNYLDWYLQKPGLSPQLLIYLGSYRASGVPDRFTGSGSGTDFTLKISRVEAEDVGVYYCMQALQAPTFGGGTKLEIK
notes: Detected with anti-human IgG; also called 32604
B13: 35A06 (antibody, V domains shown)
VH: QVQLVQSGAEVRKPGASVKVSCKASGYTFTDYALHWVRQAPGQRLEWMGWIIVGNGKTRYAQKFQGRVTITWETSASTAFMDLSSLRSEDTAVYYCARGFTMVRGAPYYDGLDVWGQGTTVTVSS
VL: DIVMTQSPLSLPVTPGEPASISCRSSQSLLYSTGYNYLDWYLQKPGLSPQLLIYLGSNRASGVPDRFSGSGSGTDFTLKISRVEAEDVGVYYCMQALQTPTFGGGTKVEIK
notes: Detected with anti-human IgG
B14: 27A03 (antibody, V domains shown)
VH: EVQLVESGGGLVKPGGSLRLSCAASGFTFSTYSMNWVRQAPGKGLEWVSSISRSSSYIYYADSVKGRFTISRDNAKNSLSLQMNSLRAEDTAVYYCARGAAAGTDYWGQGTLVTVSS
VL: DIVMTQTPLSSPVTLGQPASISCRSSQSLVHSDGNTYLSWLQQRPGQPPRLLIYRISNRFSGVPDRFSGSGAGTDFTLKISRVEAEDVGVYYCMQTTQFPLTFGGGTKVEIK
B15: 35A10 (antibody, V domains shown)
VH: EVQLVESGGGLVKPGGSLRLSCAASGFTFSTYSMNWVRQAPGKGLEWVSSISRSSSYIYYADSVKGRFTISRDNAKNSLSLQMNSLRAEDTAVYYCARGAAAGTDYWGQGTLVTVSS
VL: DIVMTQSPLSLPVTLGQPASISCRSSQSLIYSDGNTYLNWFQQRPGQSPRRLIYKVSNRDSGVPDRFSGSGSGTDFTLKISRVEAEDVGVYYCLQGTLWPITFGQGTRLEIK

This assay deals with T1, KP1.2 peptide of the D2E2 loop of the …. As to the kind of experiment: DELFIA: KP1.2 peptide on streptavidin plate, purified antibody undiluted, Eu-labelled anti-human IgG, time-resolved fluorescence at 615 nm. As for the experimental part: Four mice were immunised substantially as detailed in Table 6. The immunisations of Boost 6 each used 3 μg of KP1.2-KLH and 3 μg KP5.1-KLH, adjuvanted with IFA, CpG and Alum as set out in Table 6. A seventh booster immunisation was added, which consisted of 2 μg of KP1.2-KLH and 2 μg KP5.1-KLH, adjuvanted with IFA, CpG and Alum as set out in Table 6. Antibodies were isolated from these mice. 17 antibodies were identified using B-cell cloning technique as described above with labelled KP1.2 peptide (SEQ ID No:10). These 17 antibodies were further tested for binding to human NAV1.7 peptide using a DELFIA assay.
Streptavidin Even Coat 96 well plates (R&D Systems) were coated with 50 μL of 4 μg/ml KP1.2 peptide (SEQ ID No:10, synthesised by Mimotopes) diluted in 1×PBS (Sigma) for 1 hr at room temperature (RT). Plates were then washed 3× with 1×PBS+0.1% tween (200 μL/well). Plates were blocked with 200 μL PBS+1% BSA (Sigma) for 1 hr at RT. Plates were then washed again 3× with 1×PBS+0.1% tween (Sigma) (200 μL/well). Purified antibodies were then added non-diluted to washed plate and incubated for 1 hr at RT (50 μL/well). Plates were then washed 3× with 1×PBS+0.1% tween (200 μL/well). 50 μL/well of Dissociation-Enhanced Lanthanide Fluorescent Immunoassay (DELFIA) Europium-labelled Anti-Human IgG antibody (Perkin Elmer) diluted 1:500 in DELFIA assay buffer (Perkin Elmer) for 1 hr at RT. Plates were then washed 3× with DELFIA wash buffer (Perkin Elmer) (200 μL/well). 50 μL/well of DELFIA Enhancement Solution (Perkin Elmer, warmed to RT before use) was added to each well and incubated for 5 min at RT on shaker (Heidolph Titramax). […] Values were plotted using Prism (Graph Pad Prism).
For B1, the binding result is on record as “no binding (tested: undiluted, concentration not given)”.
As for B2, the binding result is given as “binds”.
The result for B3 reads “binds”; that for B4, “binds”.
B5: the binding result is “binds”.
On to B6, for which the binding result is on record as “no binding (tested: undiluted, concentration not given)”.
The result for B7 reads “binds”; that for B8, “binds”; that for B9, “binds”.
With B10, the binding result was “binds”.
The result for B11 reads “no binding (tested: undiluted, concentration not given)”; that for B12, “binds”.
The result for B13 reads “binds”.
Consider B14, for which the binding result is reported as “no binding (tested: undiluted, concentration not given)”.
Turning to B15, the binding result is on record as “no binding (tested: undiluted, concentration not given)”.
